Measurements as given in IntAct's records for PubMed 19666485.

B1: Chromodomain-helicase-DNA-binding protein 1-like (Homo sapiens), Q86WJ1-1 (parent)
chain: MERAGATSRGGQAPGFLLRLHTEGRAEAARVQEQDLRQWGLTGIHLRSYQLEGVNWLAQRFHCQNGCILGDEMGLGKTCQTIALFIYLAGRLNDEGPFLILCPLSVLSNWKEEMQRFAPGLSCVTYAGDKEERACLQQDLKQESRFHVLLTTYEICLKDASFLKSFPWSVLVVDEAHRLKNQSSLLHKTLSEFSVVFSLLLTGTPIQNSLQELYSLLSFVEPDLFSKEEVGDFIQRYQDIEKESESASELHKLLQPFLLRRVKAEVATELPKKTEVVIYHGMSALQKKYYKAILMKDLDAFENETAKKVKLQNILSQLRKCVDHPYLFDGVEPEPFEVGDHLTEASGKLHLLDKLLAFLYSGGHRVLLFSQMTQMLDILQDYMDYRGYSYERVDGSVRGEERHLAIKNFGQQPIFVFLLSTRAGGVGMNLTAADTVIFVDSDFNPQNDLQAAARAHRIGQNKSVKVIRLIGRDTVEEIVYRKAASKLQLTNMIIEGGHFTLGAQKPAADADLQLSEILKFGLDKLLASEGSTMDEIDLESILGETKDGQWVSDALPAAEGGSRDQEEGKNHMYLFEGKDYSKEPSKEDRKSFEQLVNLQKTLLEKASQEGRSLRNKGSVLIPGLVEGSTKRKRVLSPEELEDRQKKRQEAAAKRRRLIEEKKRQKEEAEHKKKMAWWESNNYQSFCLPSEESEPEDLENGEESSAELDYQDPDATSLKYVSGDVTHPQAGAEDALIVHCVDDSGHWGRGGLFTALEKRSAEPRKIYELAGKMKDLSLGGVLLFPVDDKESRNKGQDLLALIVAQHRDRSNVLSGIKMAALEEGLKKIFLAAKKKKASVHLPRIGHATKGFNWYGTERLIRKHLAARGIPTYIYYFPRSKSAVLHSQSSSSSSRQLVP

Variants of: B1
Conditions: with parp1_human PARP1, P09874
Chain of parp1_human PARP1, P09874 (P09874 whole entry): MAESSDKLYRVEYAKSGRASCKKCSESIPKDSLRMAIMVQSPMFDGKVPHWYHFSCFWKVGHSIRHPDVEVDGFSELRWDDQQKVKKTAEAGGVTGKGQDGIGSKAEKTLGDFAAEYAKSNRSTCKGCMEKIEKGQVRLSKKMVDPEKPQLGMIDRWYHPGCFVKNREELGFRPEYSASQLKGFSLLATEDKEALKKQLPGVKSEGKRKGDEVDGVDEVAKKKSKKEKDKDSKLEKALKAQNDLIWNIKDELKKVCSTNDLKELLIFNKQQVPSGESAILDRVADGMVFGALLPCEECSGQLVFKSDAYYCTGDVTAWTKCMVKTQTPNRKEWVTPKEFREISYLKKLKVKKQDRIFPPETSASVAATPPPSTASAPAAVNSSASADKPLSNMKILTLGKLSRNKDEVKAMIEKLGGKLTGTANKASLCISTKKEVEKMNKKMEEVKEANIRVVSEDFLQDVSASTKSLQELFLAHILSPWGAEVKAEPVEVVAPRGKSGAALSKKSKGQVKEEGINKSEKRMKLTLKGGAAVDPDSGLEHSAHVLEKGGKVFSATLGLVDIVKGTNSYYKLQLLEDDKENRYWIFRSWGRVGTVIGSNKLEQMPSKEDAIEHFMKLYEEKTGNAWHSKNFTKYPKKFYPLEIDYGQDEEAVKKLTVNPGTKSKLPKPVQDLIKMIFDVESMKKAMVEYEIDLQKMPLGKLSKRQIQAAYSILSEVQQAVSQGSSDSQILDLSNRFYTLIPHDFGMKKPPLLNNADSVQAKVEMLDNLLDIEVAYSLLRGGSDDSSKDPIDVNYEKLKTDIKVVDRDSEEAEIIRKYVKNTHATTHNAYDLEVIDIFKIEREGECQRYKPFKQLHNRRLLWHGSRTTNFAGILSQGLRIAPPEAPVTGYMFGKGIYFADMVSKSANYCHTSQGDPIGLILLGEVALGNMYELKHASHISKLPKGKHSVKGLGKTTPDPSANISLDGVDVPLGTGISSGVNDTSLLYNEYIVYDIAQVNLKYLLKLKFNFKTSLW

Row | Variant | effect of a mutation on the interaction
1 | D723A | disrupting interaction
2 | E175Q | disrupting interaction
